US20220098265A1 (MEDIMMUNE LIMITED, priority 2012, published 2022)
Numbered stars: 1 amine (or outer) side, 2 acyl side, 3 side chain; on linkers, the order of the positions; unused ones are H or OH. Side chains are listed from the residue outwards. Ends that are not written are not given here. * marks the point of attachment. γGlu = O=C(O)[C@H](CCC(=O)[*:2])N[*:1]; Palmitoyl = CCCCCCCCCCCCCCCC(=O)*

T1: human glucose-dependent insulinotropic peptide (gastric inhibitory polypeptide) receptor (human, UniProt P48546 22-466)
T1 sequence (looked up): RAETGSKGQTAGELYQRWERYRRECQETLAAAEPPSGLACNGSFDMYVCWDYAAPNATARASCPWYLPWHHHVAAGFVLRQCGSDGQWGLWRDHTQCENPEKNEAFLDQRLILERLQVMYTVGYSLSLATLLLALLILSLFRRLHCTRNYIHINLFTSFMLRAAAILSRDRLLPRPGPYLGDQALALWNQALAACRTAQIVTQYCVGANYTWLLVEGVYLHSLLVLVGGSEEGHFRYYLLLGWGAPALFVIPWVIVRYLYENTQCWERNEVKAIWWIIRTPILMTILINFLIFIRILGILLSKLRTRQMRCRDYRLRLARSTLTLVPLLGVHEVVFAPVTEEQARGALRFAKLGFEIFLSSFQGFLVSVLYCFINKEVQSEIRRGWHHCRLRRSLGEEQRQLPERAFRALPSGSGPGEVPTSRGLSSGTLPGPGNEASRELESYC

B1: g728 (peptide)
peptide: HSQGTFTSDYSK([γGlu-Palmitoyl])YLDSRRAQDFVQWLVAGG-NH2
modifications: N-terminus assumed
SMILES: CCCCCCCCCCCCCCCC(=O)N[C@@H](CCC(=O)NCCCC[C@H](NC(=O)[C@H](CO)NC(=O)[C@H](Cc1ccc(O)cc1)NC(=O)[C@H](CC(=O)O)NC(=O)[C@H](CO)NC(=O)[C@@H](NC(=O)[C@H](Cc1ccccc1)NC(=O)[C@@H](NC(=O)CNC(=O)[C@H](CCC(N)=O)NC(=O)[C@H](CO)NC(=O)[C@@H](N)Cc1c[nH]cn1)[C@@H](C)O)[C@@H](C)O)C(=O)N[C@@H](Cc1ccc(O)cc1)C(=O)N[C@@H](CC(C)C)C(=O)N[C@@H](CC(=O)O)C(=O)N[C@@H](CO)C(=O)N[C@@H](CCCNC(=N)N)C(=O)N[C@@H](CCCNC(=N)N)C(=O)N[C@@H](C)C(=O)N[C@@H](CCC(N)=O)C(=O)N[C@@H](CC(=O)O)C(=O)N[C@@H](Cc1ccccc1)C(=O)N[C@H](C(=O)N[C@@H](CCC(N)=O)C(=O)N[C@@H](Cc1c[nH]c2ccccc12)C(=O)N[C@@H](CC(C)C)C(=O)N[C@H](C(=O)N[C@@H](C)C(=O)NCC(=O)NCC(N)=O)C(C)C)C(C)C)C(=O)O
B2: g326 (peptide)
peptide: HSQGTFTSDYSKYLDSRRAQDFVQWLVAGGGGGGK(Palmitoyl)-NH2
modifications: N-terminus assumed
SMILES: CCCCCCCCCCCCCCCC(=O)NCCCC[C@H](NC(=O)CNC(=O)CNC(=O)CNC(=O)CNC(=O)CNC(=O)CNC(=O)[C@H](C)NC(=O)[C@@H](NC(=O)[C@H](CC(C)C)NC(=O)[C@H](Cc1c[nH]c2ccccc12)NC(=O)[C@H](CCC(N)=O)NC(=O)[C@@H](NC(=O)[C@H](Cc1ccccc1)NC(=O)[C@H](CC(=O)O)NC(=O)[C@H](CCC(N)=O)NC(=O)[C@H](C)NC(=O)[C@H](CCCNC(=N)N)NC(=O)[C@H](CCCNC(=N)N)NC(=O)[C@H](CO)NC(=O)[C@H](CC(=O)O)NC(=O)[C@H](CC(C)C)NC(=O)[C@H](Cc1ccc(O)cc1)NC(=O)[C@H](CCCCN)NC(=O)[C@H](CO)NC(=O)[C@H](Cc1ccc(O)cc1)NC(=O)[C@H](CC(=O)O)NC(=O)[C@H](CO)NC(=O)[C@@H](NC(=O)[C@H](Cc1ccccc1)NC(=O)[C@@H](NC(=O)CNC(=O)[C@H](CCC(N)=O)NC(=O)[C@H](CO)NC(=O)[C@@H](N)Cc1c[nH]cn1)[C@@H](C)O)[C@@H](C)O)C(C)C)C(C)C)C(N)=O
B3: g747 (peptide)
peptide: HSQGTFTSDYSKYLDSRRAQDFVQWLEAGGK([γGlu-Palmitoyl])-NH2
modifications: N-terminus assumed
SMILES: CCCCCCCCCCCCCCCC(=O)N[C@@H](CCC(=O)NCCCC[C@H](NC(=O)CNC(=O)CNC(=O)[C@H](C)NC(=O)[C@H](CCC(=O)O)NC(=O)[C@H](CC(C)C)NC(=O)[C@H](Cc1c[nH]c2ccccc12)NC(=O)[C@H](CCC(N)=O)NC(=O)[C@@H](NC(=O)[C@H](Cc1ccccc1)NC(=O)[C@H](CC(=O)O)NC(=O)[C@H](CCC(N)=O)NC(=O)[C@H](C)NC(=O)[C@H](CCCNC(=N)N)NC(=O)[C@H](CCCNC(=N)N)NC(=O)[C@H](CO)NC(=O)[C@H](CC(=O)O)NC(=O)[C@H](CC(C)C)NC(=O)[C@H](Cc1ccc(O)cc1)NC(=O)[C@H](CCCCN)NC(=O)[C@H](CO)NC(=O)[C@H](Cc1ccc(O)cc1)NC(=O)[C@H](CC(=O)O)NC(=O)[C@H](CO)NC(=O)[C@@H](NC(=O)[C@H](Cc1ccccc1)NC(=O)[C@@H](NC(=O)CNC(=O)[C@H](CCC(N)=O)NC(=O)[C@H](CO)NC(=O)[C@@H](N)Cc1c[nH]cn1)[C@@H](C)O)[C@@H](C)O)C(C)C)C(N)=O)C(=O)O
B4: g702 (peptide)
peptide: HSQGTFTSDYSK([γGlu-Palmitoyl])YLDSRRAQDFVQWLVAGG-NH2
modifications: N-terminus assumed
SMILES: CCCCCCCCCCCCCCCC(=O)N[C@@H](CCC(=O)NCCCC[C@H](NC(=O)[C@H](CO)NC(=O)[C@H](Cc1ccc(O)cc1)NC(=O)[C@H](CC(=O)O)NC(=O)[C@H](CO)NC(=O)[C@@H](NC(=O)[C@H](Cc1ccccc1)NC(=O)[C@@H](NC(=O)CNC(=O)[C@H](CCC(N)=O)NC(=O)[C@H](CO)NC(=O)[C@@H](N)Cc1c[nH]cn1)[C@@H](C)O)[C@@H](C)O)C(=O)N[C@@H](Cc1ccc(O)cc1)C(=O)N[C@@H](CC(C)C)C(=O)N[C@@H](CC(=O)O)C(=O)N[C@@H](CO)C(=O)N[C@@H](CCCNC(=N)N)C(=O)N[C@@H](CCCNC(=N)N)C(=O)N[C@@H](C)C(=O)N[C@@H](CCC(N)=O)C(=O)N[C@@H](CC(=O)O)C(=O)N[C@@H](Cc1ccccc1)C(=O)N[C@H](C(=O)N[C@@H](CCC(N)=O)C(=O)N[C@@H](Cc1c[nH]c2ccccc12)C(=O)N[C@@H](CC(C)C)C(=O)N[C@H](C(=O)N[C@@H](C)C(=O)NCC(=O)NCC(N)=O)C(C)C)C(C)C)C(=O)O
B5: g318 (peptide)
peptide: HSQGTFTSDYSKYLDSRRAQDFVQWLVAGGSSGGSSK(Palmitoyl)-NH2
modifications: N-terminus assumed
SMILES: CCCCCCCCCCCCCCCC(=O)NCCCC[C@H](NC(=O)[C@H](CO)NC(=O)[C@H](CO)NC(=O)CNC(=O)CNC(=O)[C@H](CO)NC(=O)[C@H](CO)NC(=O)CNC(=O)CNC(=O)[C@H](C)NC(=O)[C@@H](NC(=O)[C@H](CC(C)C)NC(=O)[C@H](Cc1c[nH]c2ccccc12)NC(=O)[C@H](CCC(N)=O)NC(=O)[C@@H](NC(=O)[C@H](Cc1ccccc1)NC(=O)[C@H](CC(=O)O)NC(=O)[C@H](CCC(N)=O)NC(=O)[C@H](C)NC(=O)[C@H](CCCNC(=N)N)NC(=O)[C@H](CCCNC(=N)N)NC(=O)[C@H](CO)NC(=O)[C@H](CC(=O)O)NC(=O)[C@H](CC(C)C)NC(=O)[C@H](Cc1ccc(O)cc1)NC(=O)[C@H](CCCCN)NC(=O)[C@H](CO)NC(=O)[C@H](Cc1ccc(O)cc1)NC(=O)[C@H](CC(=O)O)NC(=O)[C@H](CO)NC(=O)[C@@H](NC(=O)[C@H](Cc1ccccc1)NC(=O)[C@@H](NC(=O)CNC(=O)[C@H](CCC(N)=O)NC(=O)[C@H](CO)NC(=O)[C@@H](N)Cc1c[nH]cn1)[C@@H](C)O)[C@@H](C)O)C(C)C)C(C)C)C(N)=O
B6: g701 (peptide)
peptide: HSQGTFTSDYSK([γGlu-Palmitoyl])YLDSRRAQDFVQWLERGG-NH2
modifications: N-terminus assumed
SMILES: CCCCCCCCCCCCCCCC(=O)N[C@@H](CCC(=O)NCCCC[C@H](NC(=O)[C@H](CO)NC(=O)[C@H](Cc1ccc(O)cc1)NC(=O)[C@H](CC(=O)O)NC(=O)[C@H](CO)NC(=O)[C@@H](NC(=O)[C@H](Cc1ccccc1)NC(=O)[C@@H](NC(=O)CNC(=O)[C@H](CCC(N)=O)NC(=O)[C@H](CO)NC(=O)[C@@H](N)Cc1c[nH]cn1)[C@@H](C)O)[C@@H](C)O)C(=O)N[C@@H](Cc1ccc(O)cc1)C(=O)N[C@@H](CC(C)C)C(=O)N[C@@H](CC(=O)O)C(=O)N[C@@H](CO)C(=O)N[C@@H](CCCNC(=N)N)C(=O)N[C@@H](CCCNC(=N)N)C(=O)N[C@@H](C)C(=O)N[C@@H](CCC(N)=O)C(=O)N[C@@H](CC(=O)O)C(=O)N[C@@H](Cc1ccccc1)C(=O)N[C@H](C(=O)N[C@@H](CCC(N)=O)C(=O)N[C@@H](Cc1c[nH]c2ccccc12)C(=O)N[C@@H](CC(C)C)C(=O)N[C@@H](CCC(=O)O)C(=O)N[C@@H](CCCNC(=N)N)C(=O)NCC(=O)NCC(N)=O)C(C)C)C(=O)O

Molecular target: T1, human glucose-dependent insulinotropic …
Assay: cell-based or functional assay

Binder	cAMP EC50 (assay 1)
HSQGTFTSDYSKYLDSRRAQDFVQWLVAGGSSGGSS-NH2 [g316]	3.65 nM
HSQGTFTSDYSKYLDSRRAQDFVQWLEAGG-NH2 [g840]	102 nM
B1	395 nM
HSQGTFTSDYSKYLDSRRAQDFVQWLVAGGGGGG-NH2 [g315]	19.7 nM
HSQGTFTSDYSKYLDSRRAQDFVQWLVAGGPSSGAPPPSK(Palmitoyl)-NH2 [g320]	1.01 nM
B2	12.6 nM
B3	1040 nM

Molecular target: human glucagon receptor (human, UniProt P47871 26-477)
Sequence (P47871 26-477): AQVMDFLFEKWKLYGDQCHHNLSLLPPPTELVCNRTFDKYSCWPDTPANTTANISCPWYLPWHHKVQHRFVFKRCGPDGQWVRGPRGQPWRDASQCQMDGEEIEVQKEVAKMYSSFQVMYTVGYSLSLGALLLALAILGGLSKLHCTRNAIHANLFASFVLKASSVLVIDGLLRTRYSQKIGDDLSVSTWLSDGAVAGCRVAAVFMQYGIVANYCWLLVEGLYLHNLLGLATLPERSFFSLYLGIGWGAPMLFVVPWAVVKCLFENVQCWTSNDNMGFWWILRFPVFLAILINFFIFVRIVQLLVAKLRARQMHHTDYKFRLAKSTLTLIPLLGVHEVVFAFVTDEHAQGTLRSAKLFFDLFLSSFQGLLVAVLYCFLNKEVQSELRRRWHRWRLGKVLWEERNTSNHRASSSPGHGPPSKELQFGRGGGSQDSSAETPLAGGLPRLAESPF
Assay: cell-based or functional assay

Binder	cAMP EC50 (assay 1)
HSQGTFTSDYSKYLDSRRAQDFVQWLVAGGPSSGAPPPSK-NH2 [g319]	0.0104 nM
B4	1.49 nM
HSQGTFTSDYSKYLDSRRAQDFVQWLVAGGSSGGSS-NH2 [g316]	0.0106 nM
HSQGTFTSDYSKYLDSRRAQDFVQWLEAGG-NH2 [g840]	0.0053 nM
B5	9.04 nM
HSQGTFTSDYSKYLDSRRAQDFVQWLVAGGGGGGK-NH2 [g325]	0.0103 nM
B1	2.44 nM
HSQGTFTSDYSKYLDSRRAQDFVQWLVAGGGGGG-NH2 [g315]	0.00504 nM
HSQGTFTSDYSKYLDSRRAQDFVQWLVAGGPSSGAPPPSK(Palmitoyl)-NH2 [g320]	0.0032 nM
B6	3.83 nM
B2	0.00282 nM
HSQGTFTSDYSKYLDSRRAQDFVQWLVAGGSGSGSG-NH2 [g402]	0.0596 nM
B3	0.0942 nM

Molecular target: human GLP-1 receptor (human, UniProt P43220 24-463)
Assay: cell-based or functional assay

Binder	cAMP EC50 (assay 1)
HSQGTFTSDYSKYLDSRRAQDFVQWLVAGGPSSGAPPPSK-NH2 [g319]	0.0361 nM
HSQGTFTSDYSKYLDSRRAQDFVQWLVAGGSSGGSS-NH2 [g316]	0.0314 nM
HSQGTFTSDYSKYLDSRRAQDFVQWLEAGG-NH2 [g840]	0.145 nM
B5	1.14 nM
HSQGTFTSDYSKYLDSRRAQDFVQWLVAGGSSGGSSK-NH2 [g317]	2.63 nM
HSQGTFTSDYSKYLDSRRAQDFVQWLVAGGGGGGK-NH2 [g325]	0.0261 nM
HSQGTFTSDYSKYLDSRRAQDFVQWLVAGGGGGG-NH2 [g315]	0.0273 nM
HSQGTFTSDYSKYLDSRRAQDFVQWLVAGGPSSGAPPPSK(Palmitoyl)-NH2 [g320]	0.00938 nM
B6	7.4 nM
B2	0.0247 nM
HSQGTFTSDYSKYLDSRRAQDFVQWLVAGGSGSGSG-NH2 [g402]	0.0857 nM
B3	3.16 nM
